# Data reported in paper PMC10412585, “High-throughput characterization of HLA-E-presented CD94/NKG2x ligands reveals peptides which modulate NK cell activation” (Nature Communications, 2023).
# Legend:
# [1] = target: WN peptide (…) HLA-E single chain trimer (soluble, biotinylated) (human, biotin (AviTag)); assay: SPR; steady state, Biacore T200, biotinylated pMHC SCT immobilised at about 400 RU on a Series S SA chip, CD94/NKG2x as analyte 0.1-102.4 μM, 10 μL/min, 25 °C, HBS-EP+; reference HLA-DR401; approximate KD by Biacore software; conditions: both partners purified
# [2] = target: … peptide HLA-E single chain trimer (soluble, biotinylated) (human, biotin (AviTag)); assay: SPR; conditions: both partners purified
Binder,Kd [1] [µM],Kd [2] [µM]
"CD94/NKG2A single-chain fusion protein (human NKG2A ectodomain - GGSGGS - human CD94 ectodomain), produced in Hi5 cells for SPR (receptor, also called CD94/NKG2x) not shown",~41.5,~8.2
"CD94/NKG2C single-chain fusion protein (human NKG2C ectodomain - GGSGGS - human CD94 ectodomain), produced in Hi5 cells for SPR (receptor, also called CD94/NKG2x) not shown",~17.4,~21.4
